How the values were obtained:
Plk1 [1] = target: Plk1 (UniProt P53350); experiment: GST pull-down of His-Plk1; conditions: reference: wild type; sites S12
Plk1 [2] = target: Plk1 (UniProt P53350); experiment: co-IP of FLAG-Ataxin-10 and HA-Plk1; conditions: reference: wild type; sites S12

other: percent decrease vs wild type (Plk1 [1]): 20%
Substance: Ataxin-10 (from UniProt Q9UBB4) S12A
other: percent decrease vs wild type (Plk1 [2]): 30%

— article PMC4322367
